Experimental data: patent US20250116673A1 (published 2025)

T1: SARS-CoV-2 Spike protein peptide on HLA-DPA1*01:03 / HLA-DPB1*04:01 (human)
T1 peptide: TFEYVSQPFLMDLE


Biological target: T1, SARS-CoV-2 Spike protein peptide on …
Test: multimer staining

Row | Binder | binding result
1 | TCR4.1 (TCR) alpha TRAV35 TRAJ42 CDR3: CAGMNYGGSQGNLIF beta TRBV4-1 TRBJ1-2 CDR3: CASSQGVGYTF | recognises
2 | TCR6.3 (TCR) alpha TRAV35 TRAJ42 CDR3: CAGMNYGGSQGNLIF beta TRBV6-3 TRBJ1-2 CDR3: CASSYRGAYGYTF | recognises
